Data on 1 molecule can be found in patent US20210047373A1, “BETA BARREL POLYPEPTIDES AND METHODS FOR THEIR USE” (UNIVERSITY OF WASHINGTON, priority 2018, published 2021).

Entries after “also recorded” stand apart in the source; their conditions may differ.

On the set-up of data set [1]: species or system E. coli. The source says:
(§1) The sequences of these designs are not related to those of proteins with known structure (BLAST E-values ranged from 0.11 to 1.9 against the non-redundant protein database) and fold into the designed structure in silico (FIG. 2A). Synthetic genes encoding the designs were expressed in E. coli. […] The crystal structure of BB1 solved at 1.6 Å resolution was very close to the design model (within 1.4 Å RMSD over 99 residues of the 109 residues, FIG. 2F-G, deviations from the design are shown in FIG. 10) and had no close structural homolog in the PDB (highest TM-score <0.8). Essentially all of the key features of the design model are found in the crystal structure. The cross-section of the structure resembles the square cavity of the design model, which is not observed in any existing natural β-barrel crystal structures (FIG. 21), and is shaped by the designed glycine kinks. All 7 designed turns and β-bulges are correctly recapitulated in the crystal structure (FIG. 2H,J), along with the 3-10 helix and tryptophan corner (FIG. 2K).
(§2) Protein expression and purification. Genes encoding the nonfunctional β-barrel designs (41 from parametric design and 4 from fragment-base design) were synthesized and cloned into the pET-29 vector (GenScript, Inc). Plasmids were then transformed into BL21*(DE3) E. coli strain (NEB, Inc). […]

A short description of data set [2]: Circular dichroism, thermal and GuHCl denaturation. Format: physicochemical. On the procedure: Circular dichroism (CD). Purified protein samples were prepared at 0.5 mg/ml in 20 mM Tris buffer (150 mM NaCl, pH8.0) or PBS buffer (25 mM phosphate, 150 mM NaCl, pH7.4). Wavelength scans from 195 nm to 260 nm were recorded at 25 degrees Celsius, 75 degrees Celsius, 95 degrees Celsius and cooling back to 25 degrees Celsius. Thermal denaturation was monitored at 220 nm or 226 nm from 25 degrees Celsius to 95 degrees Celsius. Near-UV wavelength scan from 240 nm to 320 nm and tryptophan fluorescence emission were recorded in the absence and presence of 5M guanidinium chloride (GuHCl). Chemical denaturation in GuHCl was monitored by both tryptophan fluorescence and near-UV CD signal at 285 nm. The concentration of the GuHCl stock solution was measured with a refractometer (Spectronic Instruments, Inc). Far-UV CD experiments were performed on an AVIV model 420 CD spectrometer (Aviv Biomedical, Inc). Near-UV CD and tryptophan fluorescence experiments were performed on a Jasco J-1500 CD spectrometer (Jasco, Inc). Protein concentrations were determined by 280 nm absorbance with a NanoDrop™spectrophotometer (ThermoScientific, Inc). Melting temperatures were estimated by smoothing the sparse data with a Savitsky-Golay filter of order 3 and approximating the smoothed data with a cubic spline to compute derivatives. Reported Tm values are the inflection points of the melting curves.
For orientation: Circular dichroism is widely used to follow secondary structure.

Data set [3] is described as follows: Size-exclusion chromatography (SEC, SEC-MALS). The format is physicochemical. Conditions: oligomeric state.
Excerpt: as §1, §2
In general terms: Size exclusion chromatography separates by hydrodynamic size, large species first.

B1: BB1: SEQ ID NO 1; nonfunctional de novo β-barrel design, stable monomer (protein)
chain: MVDAAQYFPGTWEFRFRSSDGKEYRGTVEMQPRTPTEIEIRFKGQSSDGRPVEGRGSIEVRSPYEYRFEMQSSDGARWEGTLQVRSPDSVEVRFKSSDGREYSGEFRRQE
modifications: (1)..(1) optionally absent
With B1, the Solubility entry in data set [1] is on record as “yes”. The “β CD spectrum” value in data set [2] was “yes”. Besides, the Thermal stability entry in data set [2] (CD) is “unchanged at 95 °C; also recorded: stable at 95 degree Celsius; also recorded: does not temperature denature”. Besides, in data set [2] (near UV CD signal and tryptophan fluorescence), the “Cooperative unfolding transition in guanidine” value turned out to be 2.5 M. The SEC entry in data set [3] was “monomer”.
